Data reported in PMC3936608 (Pain, 2013).

Target: the molecule itself
Test: SDS-PAGE + SEC

B1: Rat artemin (113 amino acids) (ligand, UniProt Q6AYE8 112-224, looked up)
chain: AGTRSSRARATDARGCRLRSQLVPVSALGLGHSSDELIRFRFCSGSCRRARSPHDLSLASLLDAGALRSPPGSRPISQPCCRPTRYEAVSFMDVNSTWRTVDHLSATACGCLG
For B1, which “stoichiometry N” value is on record?
The value was 2.
